Source: IntAct's records for PubMed 31515488

B1: U3 small nucleolar RNA-associated protein 14 homolog C (Homo sapiens), Q5TAP6 (parent)
chain: MNVNQVAENLALSHQEELVDLPKNYPLSENEDEGDSDGERKHQKLLEAIISLDGKNRRKLAERSEASLKVSEFSVSSEGSGEKLGLADLLEPVKTSSSLATVKKQLNRVKSKKVVELPLNKEKIEQIHREVAFSKTSQVLSKWDPIILKNQQAEQLVFPLGKEQPAIAPIEHALSGWKARTPLEQEIFNLLHKNKQPVTDPLLTPMEKASLQAMSLEEAKMHRAELQRARALQSYYEAKARKEKKIKSKKYHKVVKKGKAKKALKEFEQLQKVNPTVALEEMEKIENARMMERMSLKHQNSGKWAKSKAIMAKYDLEARQAMQEQLAKNKELTQKLQVASESEEEEGGTEVEELLVPHVANEVQMNVDGPNPWMFRSCTSDTKEAATQEDPEQVPELAAHEVSASEAEERPVAEEEILLREFEERQSLRKRSELNQDAEPASSQETKDSSSQEVLSELRALSQKLKEKHQSRKQKASSEGTVPQVQREEPAPEEAEPLLLQRSERVQTLEELEELGKEDCFQNKELPRPVLEGQQSERTPNNRPDAPKEKKEKEQLINLQNFLTTQSPSVRSLAVPTIIEELEDEEERDQRQMIKEAFAGDDVIRDFLKEKREAVEASKPKDVDLTLPGWGEWGGVGLKPSAKKRRQFLIKAPEGPPRKDKNLPNVIISEKRNIHAAAHQVQVLPYPFTHHRQFERTIQTPIGSTWNTQRAFQKLTTPKVVTKPGHIIKPIKAEDVGYQSSSRSDLPVIQRNPKRITTRHNKEEKL
partner: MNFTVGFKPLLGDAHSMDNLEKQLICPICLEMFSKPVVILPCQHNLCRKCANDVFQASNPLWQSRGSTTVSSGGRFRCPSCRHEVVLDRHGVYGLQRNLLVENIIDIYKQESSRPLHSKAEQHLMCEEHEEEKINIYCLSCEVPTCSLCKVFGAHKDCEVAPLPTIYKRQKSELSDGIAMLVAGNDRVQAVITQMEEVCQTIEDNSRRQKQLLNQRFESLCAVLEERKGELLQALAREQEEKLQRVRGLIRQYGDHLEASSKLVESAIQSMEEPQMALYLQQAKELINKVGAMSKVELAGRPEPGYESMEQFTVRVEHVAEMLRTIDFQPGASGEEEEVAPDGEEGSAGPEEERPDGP
B2: Peroxisomal membrane protein 11C (Homo sapiens), Q96HA9 (parent)
chain: MASLSGLASALESYRGRDRLIRVLGYCCQLVGGVLVEQCPARSEVGTRLLVVSTQLSHCRTILRLFDDLAMFVYTKQYGLGAQEEDAFVRCVSVLGNLADQLYYPCEHVAWAADARVLHVDSSRWWTLSTTLWALSLLLGVARSLWMLLKLRQRLRSPTAPFTSPLPRGKRRAMEAQMQSEALSLLSNLADLANAVHWLPRGVLWAGRFPPWLVGLMGTISSILSMYQAARAGGQAEATTP
partner: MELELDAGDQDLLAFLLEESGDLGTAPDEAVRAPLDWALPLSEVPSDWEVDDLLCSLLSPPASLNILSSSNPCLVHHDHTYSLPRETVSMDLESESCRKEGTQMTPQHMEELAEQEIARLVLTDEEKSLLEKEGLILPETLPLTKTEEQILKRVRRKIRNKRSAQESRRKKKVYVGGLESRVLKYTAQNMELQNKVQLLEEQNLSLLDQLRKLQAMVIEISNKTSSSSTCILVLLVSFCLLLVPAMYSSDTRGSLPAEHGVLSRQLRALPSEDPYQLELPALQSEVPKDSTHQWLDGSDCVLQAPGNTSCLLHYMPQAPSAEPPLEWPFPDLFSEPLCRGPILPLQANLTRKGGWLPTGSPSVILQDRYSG
B3: RUN and FYVE domain-containing protein 1 (Homo sapiens), Q96T51-2 (parent)
chain: MMEERANLMHMMKLSIKVLLQSALSLGRSLDADHAPLQQFFVVMEHCLKHGLKVKKSFIGQNKSFFGPLELVEKLCPEASDIATSVRNLPELKTAVGRGRAWLYLALMQKKLADYLKVLIDNKHLLSEFYEPEALMMEEEGMVIVGLLVGLNVLDANLCLKGEDLDSQVGVIDFSLYLKDVQDLDGGKEHERITDVLDQKNYVEELNRHLSCTVGDLQTKIDGLEKTNSKLQEELSAATDRICSLQEEQQQLREQNELIRERSEKSVEITKQDTKVELETYKQTRQGLDEMYSDVWKQLKEEKKVRLELEKELELQIGMKTEMEIAMKLLEKDTHEKQDTLVALRQQLEEVKAINLQMFHKAQNAESSLQQKNEAITSFEGKTNQVMSSMKQMEERLQHSERARQGAEERSHKLQQELGGRIGALQLQLSQLHEQCSSLEKELKSEKEQRQALQRELQHEKDTSSLLRMELQQVEGLKKELRELQDEKAELQKICEEQEQALQEMGLHLSQSKLKMEDIKEVNQALKGHAWLKDDEATHCRQCEKEFSISRRKHHCRNCGHIFCNTCSSNELALPSYPKPVRVCDSCHTLLLQRCSSTAS
partner: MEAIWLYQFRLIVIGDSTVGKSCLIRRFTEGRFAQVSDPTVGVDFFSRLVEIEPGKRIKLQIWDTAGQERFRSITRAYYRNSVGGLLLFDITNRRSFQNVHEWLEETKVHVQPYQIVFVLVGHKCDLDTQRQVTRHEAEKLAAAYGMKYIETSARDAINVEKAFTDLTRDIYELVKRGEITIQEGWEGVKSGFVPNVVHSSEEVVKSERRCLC
B4: Notch homolog 2 N-terminal-like protein A (Homo sapiens), Q7Z3S9 (parent)
chain: MCVTYHNGTGYCKCPEGFLGEYCQHRDPCEKNRCQNGGTCVAQAMLGKATCRCASGFTGEDCQYSTSHPCFVSRPCLNGGTCHMLSRDTYECTCQVGFTGKECQWTDACLSHPCANGSTCTTVANQFSCKCLTGFTGQKCETDVNECDIPGHCQHGGTCLNLPGSYQCQCLQGFTGQYCDSLYVPCAPSPCVNGGTCRQTGDFTFECNCLPETVRRGTELWERDREVWNGKEHDEN
partner: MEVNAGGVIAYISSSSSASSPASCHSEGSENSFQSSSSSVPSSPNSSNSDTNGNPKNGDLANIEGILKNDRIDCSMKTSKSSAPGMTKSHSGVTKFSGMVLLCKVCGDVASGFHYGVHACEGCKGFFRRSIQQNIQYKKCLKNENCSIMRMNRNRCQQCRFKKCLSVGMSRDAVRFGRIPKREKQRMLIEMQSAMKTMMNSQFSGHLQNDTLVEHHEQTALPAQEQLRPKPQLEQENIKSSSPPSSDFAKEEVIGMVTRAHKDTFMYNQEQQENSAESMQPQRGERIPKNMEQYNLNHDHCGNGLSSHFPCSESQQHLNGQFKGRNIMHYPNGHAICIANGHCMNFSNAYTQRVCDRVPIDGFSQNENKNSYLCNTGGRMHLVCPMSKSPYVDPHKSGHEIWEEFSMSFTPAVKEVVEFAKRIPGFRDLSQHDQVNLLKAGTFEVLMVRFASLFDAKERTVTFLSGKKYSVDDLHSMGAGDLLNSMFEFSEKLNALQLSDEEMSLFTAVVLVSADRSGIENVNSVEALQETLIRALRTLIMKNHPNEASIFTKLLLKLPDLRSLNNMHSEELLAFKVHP

Variants of: B1
Conditions: with tri54_human TRIM54, Q9BYV2

Variant	effect of a mutation on the interaction
T101A	disrupting interaction strength

Variants of: B2
Conditions: with creb3_human CREB3, O43889

Variant	effect of a mutation on the interaction
C91W	with no effect

Variants of: B3
Conditions: with rb39b_human RAB39B

Variant	effect of a mutation on the interaction
C159F	with no effect

Variants of: B4
Conditions: with nr1d2_human NR1D2, Q14995

Variant	effect of a mutation on the interaction
A115T	with no effect
R74Q	with no effect
